Measured values from PMC4385930.

Legend:
Assay in all cases: ITC
[1] = molecular target: Bax BH3 BH3 (Homo sapiens), Q07812
[2] = molecular target: Bak BH3 BH3 (Homo sapiens), Q16611
[3] = molecular target: Bid BH3 BH3 (Homo sapiens), P55957

B1: F1L ΔN38ΔC36, P24356 (protein)
chain: YPLPENMVYRFDKSTNILDYLSTERDHVMMAVRYYMSKQRLDDLYRQLPTKTRSYIDIINIYCDKVSNDYNRDMNIMYDMASTKSFTVYDINNEVNTILMDNKGLGVRLATISFITELGRRCMNPVETIKMFTLLSHTICDDYFVDYITDIS
- Kd [1]: 920 nM
- Kd [2]: 2640 nM
- Kd [3]: 3220 nM
